Results as given in patent US20230035659A1, “Compositions and Methods for TTR Gene Editing and Treating ATTR Amyloidosis Comprising a Corticosteroid or Use Thereof” (Intellia Therapeutics, Inc., priority 2019, published 2023).
Strand notation (5' to 3'): a small letter for the sugar, then the base; units joined by * are phosphorothioate-linked, units joined directly phosphodiester-linked; [ ] holds rarer units or linkages, { } end groups; capitals alone tell only the bases. m = 2'-O-methyl; r = 2'-OH (RNA)

B1: G000499: TTR sgRNA modified sequence, Human, SEQ ID NO: 106; guide sequence of CR005303 (nucleic acid)
guide: mU*mG*mA*rArUrCrCrArArGrUrGrUrCrCrUrCrUrGrArGrUrUrUrUrArGrAmGmCmUmAmGmAmAmAmUmAmGmCrArArGrUrUrArArArArUrArArGrGrCrUrArGrUrCrCrGrUrUrArUrCrAmAmCmUmUmGmAmAmAmAmAmGmUmGmGmCmAmCmCmGmAmGmUmCmGmGmUmGmCmU*mU*mU*mU
B2: G000494: TTR sgRNA modified sequence, Human, SEQ ID NO: 101; guide sequence of CR003360 (nucleic acid)
guide: mG*mU*mG*rArGrUrCrUrGrGrArGrArGrCrUrGrCrArUrGrUrUrUrUrArGrAmGmCmUmAmGmAmAmAmUmAmGmCrArArGrUrUrArArArArUrArArGrGrCrUrArGrUrCrCrGrUrUrArUrCrAmAmCmUmUmGmAmAmAmAmAmGmUmGmGmCmAmCmCmGmAmGmUmCmGmGmUmGmCmU*mU*mU*mU
B3: G000480: TTR sgRNA modified sequence, Human, SEQ ID NO: 87; guide sequence of CR003353 (nucleic acid)
guide: mA*mA*mA*rGrGrCrUrGrCrUrGrArUrGrArCrArCrCrUrGrUrUrUrUrArGrAmGmCmUmAmGmAmAmAmUmAmGmCrArArGrUrUrArArArArUrArArGrGrCrUrArGrUrCrCrGrUrUrArUrCrAmAmCmUmUmGmAmAmAmAmAmGmUmGmGmCmAmCmCmGmAmGmUmCmGmGmUmGmCmU*mU*mU*mU
B4: G000486: TTR sgRNA modified sequence, Human, SEQ ID NO: 93; guide sequence of CR003339 (nucleic acid)
guide: mA*mC*mA*rCrArArArUrArCrCrArGrUrCrCrArGrCrArGrUrUrUrUrArGrAmGmCmUmAmGmAmAmAmUmAmGmCrArArGrUrUrArArArArUrArArGrGrCrUrArGrUrCrCrGrUrUrArUrCrAmAmCmUmUmGmAmAmAmAmAmGmUmGmGmCmAmCmCmGmAmGmUmCmGmGmUmGmCmU*mU*mU*mU

Legend:
human TTR sequence = assay: Liver editing (NGS) after LNP dosing of mice humanized with respect to the TTR gene; assay type: in vivo, mouse; conditions: LNP Formulation Numbers 1-5, 2 mg/kg total RNA, Cas9 mRNA SEQ ID NO: 2, 1:1 to guide
Procedure: Unless otherwise noted, CD-1 female mice, ranging from 6-10 weeks of age were used in each study. Animals were weighed and grouped according to body weight for preparing dosing solutions based on group average weight. LNPs were dosed via the lateral tail vein in a volume of 0.2 mL per animal (approximately 10 mL per kilogram body weight). […] Body weight was measured at twenty-four hours post-administration, and animals were euthanized at various time points by exsanguination via cardiac puncture under isoflourane anesthesia. Blood was collected into serum separator tubes or into tubes containing buffered sodium citrate for plasma as described herein. […]
Additional PCR was performed per the manufacturer's protocols (Illumina) to add chemistry for sequencing. […] The reads were aligned to a reference genome (e.g., the human reference genome (hg38), the cynomologus reference genome (mf5), the rat reference genome (rn6), or the mouse reference genome (mm10)) after eliminating those having low quality scores. The resulting files containing the reads were mapped to the reference genome (BAM files), where reads that overlapped the target region of interest were selected and the number of wild type reads versus the number of reads which contain an insertion, substitution, or deletion was calculated. […]

[1] = system: TTR on-target site and potential off-target sites; assay: Targeted amplicon sequencing of on-target and potential off-target sites in primary human hepatocytes treated with LNPs; assay type: cell-based; conditions: PHH; for highest concentration (of gRNA) at which the potential off-target sites were no longer detected: LNP 11 point dose response 0.001-46.55 nM gRNA; for indel rate observed at the on-target site / number of potential off-target sites identified by the oligo insertion assay at which indels were detected (low levels) / indels at the in silico predicted off-target sites: LNP with 100 ng Cas9 mRNA (SEQ ID NO: 1); for indel rate observed at the on-target site: near-saturating dose of LNP; for number of potential off-target sites identified by the oligo insertion assay at which indels were detected (low levels): near-saturating dose; for number of potential off-target sites identified by the oligo insertion assay at which indels were detected (low levels) / indels at the in silico predicted off-target sites / Indel Frequency, On-Target site: targeted amplicon sequencing; for on-target indel rate at the highest gRNA concentration without detected off-target sites: LNP, 0.57 nM (G000480) and 15.51 nM (G000486) gRNA
Procedure: The HEK293_Cas9 cells used in Example 5 for detecting potential off-targets constitutively overexpress Cas9, leading to a higher number of potential off-target “hits” as compared to a transient delivery paradigm in various cell types. […] Accordingly, potential off-target sites identified by an oligo insertion method as used in Example 5 may be validated using targeted sequencing of the identified potential off-target sites.
In one approach, primary hepatocytes are treated with LNPs comprising Cas9 mRNA and a sgRNA of interest (e.g., a sgRNA having potential off-target sites for evaluation). The primary hepatocytes are then lysed and primers flanking the potential off-target site(s) are used to generate an amplicon for NGS analysis. Identification of indels at a certain level may validate potential off-target site, whereas the lack of indels found at the potential off-target site may indicate a false positive in the HEK293_Cas9 cell assay.
Following the identification of potential off-target sites in […] via the oligo insertion assay, certain potential sites were further evaluated by targeted amplicon sequencing, e.g., as described in Example 6. In addition to the potential off-target sites identified by the oligo insertion strategy, additional potential off-target sites identified by in silico prediction were included in the analysis.
To this end, PHH were treated with LNPs comprising 100 ng of Cas9 mRNA (SEQ ID NO:1) and the gRNA of interest at 14.68 nM (in a 1:1 ratio by weight), as described in Example 4. The LNPs were prepared using the cross-flow procedure described above and purified and concentrated using PD-10 columns and Amicon centrifugal filter units, respectively. The LNPs were formulated with an N:P ratio of 6.0 and contained Lipid A, Cholesterol, DSPC, and PEG2k-DMG in a 50:38:9:2 molar ratio, respectively. Following LNP treatment, isolated genomic DNA was analyzed by NGS (e.g., as described in Examples 1 and 6) to determine whether indels could be detected at the potential off-target site, which would be indicative of a Cas9-mediated cleavage event. Tables 33 and 34 show the potential off-target sites that were evaluated for the gRNAs G000480 and G000486, respectively.
As shown in FIGS. 21A-B and 22A-B and Table 35 below, indels were detected at low levels for only two of the potential off-target sites identified by the oligo insertion assay for G000480, and only one for G000486. […] Further, indels were only detected at these sites using a near-saturating dose of LNP, as the indel rates observed at the on-target sites for G000480 and G000486 were ˜97% and ˜91%, respectively (See Table 35).
A dose response assay was then performed in order to determine the highest dose of LNP in which no off-targets were detected. PHH were treated with LNPs comprising either G000480 or G000486 as described in Example 4. The doses ranged across 11 points with respect to gRNA concentration (0.001 nM, 0.002 nM, 0.007 nM, 0.02 nM, 0.06 nM, 0.19 nM, 0.57 nM, 1.72 nM, 5.17 nM, 15.51 nM, and 46.55 nM).

[2] = LNP with 100 ng Cas9 mRNA and 14.68 nM gRNA

Row | Molecule | liver editing of the human TTR sequence (mean values) (human TTR sequence) | highest concentration (of gRNA) at which the potential off-target sites were no longer detected [1] | indel rate observed at the on-target site [1] | number of potential off-target sites identified by the oligo insertion assay at which indels were detected (low levels) [1] | indels at the in silico predicted off-target sites [1] | Indel Frequency, Off-Target site INS-OT.2 ([1]; LNP with 100 ng Cas9 mRNA and 14.68 nM gRNA, G000480 site INS-OT.2 (chr2: 192658562-192658582)) | Indel Frequency, Off-Target site INS-OT.4 (of G000480) ([1]; LNP with 100 ng Cas9 mRNA and 14.68 nM gRNA, G000480 site INS-OT.4 (chr20: 9216118-9216138)) | Indel Frequency, On-Target site [1, 2] | on-target indel rate at the highest gRNA concentration without detected off-target sites [1] | Indel Frequency, Off-Target site INS-OT.4 (of G000486) ([1]; LNP with 100 ng Cas9 mRNA and 14.68 nM gRNA, G000486 site INS-OT.4 (chr5: 91397023-91397043))
1 | B1 | ~60% | – | – | – | – | – | – | – | – | –
2 | B2 | ~60% | – | – | – | – | – | – | – | – | –
3 | B3 | – | 0.57 nM | ~97% | two | No indels were detected | 1.43% | 0.97% | 97.33% | 84.60% | –
4 | B4 | – | 15.51 nM | ~91% | one | No indels were detected | – | – | 91.33% | 89.50% | 0.47%
